Data set [1] deals with the molecule itself. The data set is described as follows: cryo-EM structure; xKCNQ1(67-610) co-expressed with CaM in tsA201 cells, complex purified in DDM/CHS, 0.5 mM CaCl2; grids without and with 100 uM ML277; C4 symmetry imposed.
Another data set addresses T1, Calmodulin (UniProt P0DP23 1-149).
T1 construct: Calmodulin; DNA a gift of the Wayne Chen lab; model built from residues 10 to 146; Sample held 0.5 mM CaCl2; also called CaM; Ca2+/CaM; source: tsA201 cells, co-transfected with xKCNQ1 (pcDNA3), co-purified with xKCNQ1
Described as above. The settings on record: both partners purified.

The source of these data is publication PMC9243137, “Structural and electrophysiological basis for the modulation of KCNQ1 channel currents by ML277” (Nature Communications, 2022).

B1: Xenopus laevis KCNQ1, residues 67-610 (truncated, biochemically stable form) (domain or fragment, UniProt P70057 67-610, looked up)
chain: ATDPPRPTINLDPRVSIYSGRRPLLSRTNIQGRVYNFLERPTGWKCFVYHFTVFLIVLICLIFSVLSTIQQYNNLATETLFWMEIVLVVFFGAEYVVRLWSAGCRSKYVGVWGRLRFARKPISVIDLIVVVASVIVLCVGSNGQVFATSAIRGIRFLQILRMLHVDRQGGTWRLLGSVVFIHRQELITTLYIGFLGLIFSSYFVYLAEKDAIDSSGEYQFGSYADALWWGVVTVTTIGYGDKVPQTWIGKTIASCFSVFAISFFALPAGILGSGFALKVQQKQRQKHFNRQIPAAASLIQTAWRCYAAENPDSATWKIYIRKQSRNHHLMSPSPKPKKSAMVKKKKIRTERDEGSTDKMLNIPHITYDHVADDRKNDGYSVESYENTVRKPFGFLDPSTGPFIRTSSFTDDLDMEGDTLLTPITHISELKEHHRAAIKVIRRMQYFVAKKKFQQARKPYDVRDVIEQYSQGHLNLMVRIKELQRRLDQSLGKPSLFLSVSDKVKDKGINTIGSRLNRVEDKVTQMDHKLNLITDMLHHLLTNQQ
notes: KCNQ1 (Kv7.1) of Xenopus laevis, NP_001116347.1, residues 67-610; N- and C-termini truncated as in Sun and MacKinnon 2017; model built from residues 95 to 556 (67-94, 206-214, 385-496 disordered); Human KCNQ1 numbering is +10 against xKCNQ1; A preScission protease site stood between the channel and the C-terminal GFP-6xHis tag; residues of the site may be left after cleavage; Four subunits (C4 …)
As to B1, the binding result (in data set [1]; with Calmodulin) was “binds” in each case.
